Measured values taken from the supplement of paper PMC7125110.
± gives the standard error. Variants at the floor of the assay were thinned out.

B1: glmS ribozyme (parent)
chain: AUAAAAGCGCCAGAACUACAGAAAUGUAGUUGACGAGGAGGAGGUUUAUCGAAUUUUCGGCGGAUGCCUCCAAA

Variants of: B1
Experiment: self-cleavage kobs at 2500 uM GlcN6P; higher = faster cleavage; RNA array
Settings: with glucosamine-6-phosphate
Outline: (§1)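 A hybridised Cy3 probe tracked barcoded ribozyme variants, transcribed in situ by E. coli RNA polymerase on sequenced MiSeq chips, at 37 °C. The variants received 40 μM to 10 mM glucosamine-6-phosphate in HEPES/KCl/Mg(OAc)2 buffer. kobs came from decay fits and kcat and KM from weighted Michaelis–Menten fits.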

| Variant | self-cleavage kobs at 2500 uM GlcN6P [s⁻¹] |
| --- | --- |
| G37C U57C C58G | < 1e-05 |
| A39U U46G U56G | 0.000873 ± 0.00027 |
| C34A G43A C50G U54C | < 1e-05 |
| A39U A48G C71U | 4.36e-05 ± 1.5e-05 |
| A36C A42U G63C | < 1e-05 |
| C34G A42C G63C U65G | < 1e-05 |
| A36G G40U U45C C67U | < 1e-05 |
| A42U G44U U65C | < 1e-05 |
| G43C U46G C58A | < 1e-05 |
| A33G A42U U47A A53G | < 1e-05 |
| G38C G41C C61A C71G | < 1e-05 |
| G32U G35U A53G C58A | < 1e-05 |
| A33G U47C U54C G62A | < 1e-05 |
| G38A C58U C71U | < 1e-05 |
| A42G G51C G62A | < 1e-05 |
| G35U U57A U69A | < 1e-05 |
| C34U G35U G62C | < 1e-05 |
| G37C U45G U46G G60C A64C | < 1e-05 |
| A36G U65C C68G | < 1e-05 |
| G38C U46C U49A | < 1e-05 |
| A33U G35C C67G | < 1e-05 |

| Variant | self-cleavage kobs at 2500 uM GlcN6P [s⁻¹] |
| --- | --- |
| G32A G41C C68U | < 1e-05 |
| A33U U55C G60C | < 1e-05 |
| A36U U65A C68U | < 1e-05 |
| C34U G35A G38U G43A | < 1e-05 |
| A42C C58A G60U | < 1e-05 |
| A39C U47C U65A | 9.45e-05 ± 3.8e-05 |
| U45G A64U C68U | < 1e-05 |
| U31C U45A U57C | 4.12e-05 ± 1.4e-05 |
| A36C G43C G51C C61A C71U | < 1e-05 |
| A33C A39G G40U U49A | < 1e-05 |
| G32A G38U A53C U55C G60C C71U | < 1e-05 |
| A42U G43U C50G | 7.64e-05 ± 3.6e-05 |
| G44C A48G | < 1e-05 |
| U45C G66C C71A | 6.04e-05 ± 2.8e-05 |
| A33U G37C G38C G43A G51A | < 1e-05 |
| G32C G41C G43C C61A | < 1e-05 |
| G40A G62U C70G | < 1e-05 |
| G40U G43U C70G | < 1e-05 |
| G35U G60A C68U | < 1e-05 |
| A39C G60C C67G | < 1e-05 |
| U31C G40U A42U G63C | < 1e-05 |

| Variant | self-cleavage kobs at 2500 uM GlcN6P [s⁻¹] |
| --- | --- |
| A33C G37A G60C | < 1e-05 |
| G35U G40U U49G | < 1e-05 |
| A36C G44A C70A | < 1e-05 |
| U31G C61A C67A | 0.000101 ± 2.8e-05 |
| G37U A52U C71U | < 1e-05 |
| G37U U45G U65G | < 1e-05 |
| A39G A48C C71G | 4.19e-05 ± 1.9e-05 |
| G32C G37C U55C U65G | < 1e-05 |
| G32U G40U U45A | 4.53e-05 ± 1.3e-05 |
| C34U G38U A42U G63U | < 1e-05 |
| U31G A53U C70A | 0.000207 ± 6.4e-05 |
| G40U C50A U56A C67G C71U | < 1e-05 |
| G38A A53G G63U | < 1e-05 |
| A39C U56C U65G | 8.8e-05 ± 1.3e-05 |
| G35U G41U G62A | < 1e-05 |
| U31G A39U U55G C71U | 0.0043 ± 0.00067 |
| G32U G41U G44A C70U | < 1e-05 |
| G40U A64G C71A | 0.00288 ± 0.0008 |
| U31G G35C G41A A53U G63A | < 1e-05 |
| G43C U46G A52G U54G G60A | < 1e-05 |
| G41U A42C C61A | < 1e-05 |

| Variant | self-cleavage kobs at 2500 uM GlcN6P [s⁻¹] |
| --- | --- |
| C34U A52U A53G A64U C70U | < 1e-05 |
| C34U U45G C70A | < 1e-05 |
| G40A A53G C58A | 0.000125 ± 3.1e-05 |
| G32U A39U G60U | < 1e-05 |
| A42G A48U A52G C70A | < 1e-05 |
| G32U G37A G63C | < 1e-05 |
| G32A G60C C70A | < 1e-05 |
| G44A U49C | < 1e-05 |
| G32U G63C C71G | 6.45e-05 ± 3.2e-05 |
| A33C G35U A42G A48G | < 1e-05 |
| G38C C58G G60U | < 1e-05 |
| G37C G44C C67U | < 1e-05 |
| A33C G38C A48G U56C | < 1e-05 |
| U31C C34G G35U C68G | 0.000147 ± 6.7e-05 |
| A36G A39U G62U | < 1e-05 |
| G41A U47C G51C | < 1e-05 |
| G37A U49C A53U | < 1e-05 |
| A39C A53U C67A | 6.25e-05 ± 1.6e-05 |
| U31G G38C G43U U47A A48C | < 1e-05 |
| G40U G43U U54A | < 1e-05 |

Variants of: B1
Experiment: self-cleavage kobs at 10000 uM GlcN6P; higher = faster cleavage; RNA array
Settings: with glucosamine-6-phosphate
Outline: as §1

| Variant | self-cleavage kobs at 10000 uM GlcN6P [s⁻¹] |
| --- | --- |
| G35U G41U G62A | < 1e-05 |
| C34U U45G C70A | < 1e-05 |
| U31C C34G G35U C68G | 0.000118 ± 4.1e-05 |
| G40U G43U U54A | < 1e-05 |
